Molecular target: T1, Alexa488 conjugated human CD5 protein (human, UniProt P06127 25-372, limits assumed, Alexa488 conjugated (site not stated))
T1 sequence (looked up): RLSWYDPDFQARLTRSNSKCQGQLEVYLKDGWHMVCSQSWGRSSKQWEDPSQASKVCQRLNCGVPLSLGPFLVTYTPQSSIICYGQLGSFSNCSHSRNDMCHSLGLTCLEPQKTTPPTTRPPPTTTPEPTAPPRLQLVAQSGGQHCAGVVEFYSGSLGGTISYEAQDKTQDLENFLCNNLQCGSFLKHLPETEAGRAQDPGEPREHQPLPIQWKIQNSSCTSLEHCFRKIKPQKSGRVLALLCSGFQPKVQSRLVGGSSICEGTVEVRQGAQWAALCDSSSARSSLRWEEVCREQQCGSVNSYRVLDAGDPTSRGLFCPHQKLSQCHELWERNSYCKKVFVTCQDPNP
Experiment: flow cytometry, labelled soluble CD5 on electroporated CD14+ monocytes, 24, 48 and 72 hours post thaw

B1: CD5-CAR (anti-CD5 chimeric antigen receptor on electroporated CD14+ monocytes, Example 15) (receptor, not shown: small tags and cut ends)
chain: EIQLVQSGGGLVKPGGSVRISCAASGYTFTNYGMNWVRQAPGKGLEWMGWINTHTGEPTYADSFKGRFTFSLDDSKNTAYLQINSLRAEDTAVYFCTRRGYDWYFDVWGQGTTVTVSSGGGGSGGGGSGGGGSDIQMTQSPSSLSASVGDRVTITCRASQDINSYLSWFQQKPGKAPKTLIYRANRLESGVPSRFSGSGSGTDYTLTISSLQYEDFGIYYCQQYDESPWTFGGGTKLEIK
notes: also called CD5-CAR monocytes
binding result: binds

— patent EP4678184A2 (CREATE Medicines, Inc., dated 2026)
